Results as given in article PMC7367873, “Dissecting the sequence determinants for dephosphorylation by the catalytic subunits of phosphatases PP1 and PP2A” (Nature Communications, 2020).

B1: SLC25A13 (protein, UniProt Q9UJS0 2-675, looked up)
Electrogenic …: AAAKVALTKRADPAELRTIFLKYASIEKNGEFFMSPNDFVTRYLNIFGESQPNPKTVELLSGVVDQTKDGLISFQEFVAFESVLCAPDALFMVAFQLFDKAGKGEVTFEDVKQVFGQTTIHQHIPFNWDSEFVQLHFGKERKRHLTYAEFTQFLLEIQLEHAKQAFVQRDNARTGRVTAIDFRDIMVTIRPHVLTPFVEECLVAAAGGTTSHQVSFSYFNGFNSLLNNMELIRKIYSTLAGTRKDVEVTKEEFVLAAQKFGQVTPMEVDILFQLADLYEPRGRMTLADIERIAPLEEGTLPFNLAEAQRQKASGDSARPVLLQVAESAYRFGLGSVAGAVGATAVYPIDLVKTRMQNQRSTGSFVGELMYKNSFDCFKKVLRYEGFFGLYRGLLPQLLGVAPEKAIKLTVNDFVRDKFMHKDGSVPLAAEILAGGCAGGSQVIFTNPLEIVKIRLQVAGEITTGPRVSALSVVRDLGFFGIYKGAKACFLRDIPFSAIYFPCYAHVKASFANEDGQVSPGSLLLAGAIAGMPAASLVTPADVIKTRLQVAARAGQTTYSGVIDCFRKILREEGPKALWKGAGARVFRSSPQFGVTLLTYELLQRWFYIDFGGVKPMGSEPVPKSRINLPAPNPDHVGGYKLAVATFAGIENKFGLYLPLFKPSVSTSKAIGGGP
B2: CCDC124 (protein, UniProt Q96CT7 1-223, looked up)
Coiled-coil domain-containing …: MPKKFQGENTKSAAARARRAEAKAAADAKKQKELEDAYWKDDDKHVMRKEQRKEEKEKRRLDQLERKKETQRLLEEEDSKLKGGKAPRVATSSKVTRAQIEDTLRRDHQLREAPDTAEKAKSHLEVPLEENVNRRVLEEGSVEARTIEDAIAVLSVAEEAADRHPERRMRAAFTAFEEAQLPRLKQENPNMRLSQLKQLLKKEWLRSPDNPMNQRAVPFNAPK
B3: CKAP4 (protein, UniProt Q07065 1-602, looked up)
Cytoskeleton-associated …: MPSAKQRGSKGGHGAASPSEKGAHPSGGADDVAKKPPPAPQQPPPPPAPHPQQHPQQHPQNQAHGKGGHRGGGGGGGKSSSSSSASAAAAAAAASSSASCSRRLGRALNFLFYLALVAAAAFSGWCVHHVLEEVQQVRRSHQDFSRQREELGQGLQGVEQKVQSLQATFGTFESILRSSQHKQDLTEKAVKQGESEVSRISEVLQKLQNEILKDLSDGIHVVKDARERDFTSLENTVEERLTELTKSINDNIAIFTEVQKRSQKEINDMKAKVASLEESEGNKQDLKALKEAVKEIQTSAKSREWDMEALRSTLQTMESDIYTEVRELVSLKQEQQAFKEAADTERLALQALTEKLLRSEESVSRLPEEIRRLEEELRQLKSDSHGPKEDGGFRHSEAFEALQQKSQGLDSRLQHVEDGVLSMQVASARQTESLESLLSKSQEHEQRLAALQGRLEGLGSSEADQDGLASTVRSLGETQLVLYGDVEELKRSVGELPSTVESLQKVQEQVHTLLSQDQAQAARLPPQDFLDRLSSLDNLKASVSQVEADLKMLRTAVDSLVAYSVKIETNENNLESAKGLLDDLRNDLDRLFVKVEKIHEKV
B4: EIF5B (protein, UniProt O60841 1-1220, looked up)
Eukaryotic translation …: MGKKQKNKSEDSTKDDIDLDALAAEIEGAGAAKEQEPQKSKGKKKKEKKKQDFDEDDILKELEELSLEAQGIKADRETVAVKPTENNEEEFTSKDKKKKGQKGKKQSFDDNDSEELEDKDSKSKKTAKPKVEMYSGSDDDDDFNKLPKKAKGKAQKSNKKWDGSEEDEDNSKKIKERSRINSSGESGDESDEFLQSRKGQKKNQKNKPGPNIESGNEDDDASFKIKTVAQKKAEKKERERKKRDEEKAKLRKLKEKEELETGKKDQSKQKESQRKFEEETVKSKVTVDTGVIPASEEKAETPTAAEDDNEGDKKKKDKKKKKGEKEEKEKEKKKGPSKATVKAMQEALAKLKEEEERQKREEEERIKRLEELEAKRKEEERLEQEKRERKKQKEKERKERLKKEGKLLTKSQREARARAEATLKLLQAQGVEVPSKDSLPKKRPIYEDKKRKKIPQQLESKEVSESMELCAAVEVMEQGVPEKEETPPPVEPEEEEDTEDAGLDDWEAMASDEETEKVEGNKVHIEVKENPEEEEEEEEEEEEDEESEEEEEEEGESEGSEGDEEDEKVSDEKDSGKTLDKKPSKEMSSDSEYDSDDDRTKEERAYDKAKRRIEKRRLEHSKNVNTEKLRAPIICVLGHVDTGKTKILDKLRHTHVQDGEAGGITQQIGATNVPLEAINEQTKMIKNFDRENVRIPGMLIIDTPGHESFSNLRNRGSSLCDIAILVVDIMHGLEPQTIESINLLKSKKCPFIVALNKIDRLYDWKKSPDSDVAATLKKQKKNTKDEFEERAKAIIVEFAQQGLNAALFYENKDPRTFVSLVPTSAHTGDGMGSLIYLLVELTQTMLSKRLAHCEELRAQVMEVKALPGMGTTIDVILINGRLKEGDTIIVPGVEGPIVTQIRGLLLPPPMKELRVKNQYEKHKEVEAAQGVKILGKDLEKTLAGLPLLVAYKEDEIPVLKDELIHELKQTLNAIKLEEKGVYVQASTLGSLEALLEFLKTSEVPYAGINIGPVHKKDVMKASVMLEHDPQYAVILAFDVRIERDAQEMADSLGVRIFSAEIIYHLFDAFTKYRQDYKKQKQEEFKHIAVFPCKIKILPQYIFNSRDPIVMGVTVEAGQVKQGTPMCVPSKNFVDIGIVTSIEINHKQVDVAKKGQEVCVKIEPIPGESPKMFGRHFEATDILVSKISRQSIDALKDWFRDEMQKSDWQLIVELKKVFEII
B5: FAM83H (protein, UniProt Q6ZRV2 1-1179, looked up)
Protein FAM83H: MARRSQSSSQGDNPLAPGYLPPHYKEYYRLAVDALAEGGSEAYSRFLATEGAPDFLCPEELEHVSRHLRPPQYVTREPPEGSLLDVDMDGSSGTYWPVNSDQAVPELDLGWPLTFGFQGTEVTTLVQPPPPDSPSIKDEARRMIRSAQQVVAVVMDMFTDVDLLSEVLEAAARRVPVYILLDEMNAQHFLDMADKCRVNLQHVDFLRVRTVAGPTYYCRTGKSFKGHVKEKFLLVDCAVVMSGSYSFMWSFEKIHRSLAHVFQGELVSSFDEEFRILFAQSEPLVPSAAALARMDAYALAPYAGAGPLVGVPGVGAPTPFSFPKRAHLLFPPPREEGLGFPSFLDPDRHFLSAFRREEPPRMPGGALEPHAGLRPLSRRLEAEAGPAGELAGARGFFQARHLEMDAFKRHSFATEGAGAVENFAAARQVSRQTFLSHGDDFRFQTSHFHRDQLYQQQYQWDPQLTPARPQGLFEKLRGGRAGFADPDDFTLGAGPRFPELGPDGHQRLDYVPSSASREVRHGSDPAFAPGPRGLEPSGAPRPNLTQRFPCQAAARPGPDPAPEAEPERRGGPEGRAGLRRWRLASYLSGCHGEDGGDDGLPAPMEAEAYEDDVLAPGGRAPAGDLLPSAFRVPAAFPTKVPVPGPGSGGNGPEREGPEEPGLAKQDSFRSRLNPLVQRSSRLRSSLIFSTSQAEGAAGAAAATEKVQLLHKEQTVSETLGPGGEAVRSAASTKVAELLEKYKGPARDPGGGAGAITVASHSKAVVSQAWREEVAAPGAVGGERRSLESCLLDLRDSFAQQLHQEAERQPGAASLTAAQLLDTLGRSGSDRLPSRFLSAQSHSTSPQGLDSPLPLEGSGAHQVLHNESKGSPTSAYPERKGSPTPGFSTRRGSPTTGFIEQKGSPTSAYPERRGSPVPPVPERRSSPVPPVPERRGSLTLTISGESPKAGPAEEGPSGPMEVLRKGSLRLRQLLSPKGERRMEDEGGFPVPQENGQPESPRRLSLGQGDSTEAATEERGPRARLSSATANALYSSNLRDDTKAILEQISAHGQKHRAVPAPSPGPTHNSPELGRPPAAGVLAPDMSDKDKCSAIFRSDSLGTQGRLSRTLPASAEERDRLLRRMESMRKEKRVYSRFEVFCKKEEASSPGAGEGPAEEGTRDSKVGKFVPKILGTFKSKK
B6: ATAD3A (protein, UniProt Q9NVI7 2-586, looked up)
ATPase family AAA …: SWLFGINKGPKGEGAGPPPPLPPAQPGAEGGGDRGLGDRPAPKDKWSNFDPTGLERAAKAARELEHSRYAKDALNLAQMQEQTLQLEQQSKLKEYEAAVEQLKSEQIRAQAEERRKTLSEETRQHQARAQYQDKLARQRYEDQLKQQQLLNEENLRKQEESVQKQEAMRRATVEREMELRHKNEMLRVEAEARARAKAERENADIIREQIRLKAAEHRQTVLESIRTAGTLFGEGFRAFVTDWDKVTATVAGLTLLAVGVYSAKNATLVAGRFIEARLGKPSLVRETSRITVLEALRHPIQVSRRLLSRPQDALEGVVLSPSLEARVRDIAIATRNTKKNRSLYRNILMYGPPGTGKTLFAKKLALHSGMDYAIMTGGDVAPMGREGVTAMHKLFDWANTSRRGLLLFVDEADAFLRKRATEKISEDLRATLNAFLYRTGQHSNKFMLVLASNQPEQFDWAINDRINEMVHFDLPGQEERERLVRMYFDKYVLKPATEGKQRLKLAQFDYGRKCSEVARLTEGMSGREIAQLAVSWQATAYASEDGVLTEAMMDTRVQDAVQQHQQKMCWLKAEGPGRGDEPSPS
B7: DHX36 (protein, UniProt Q9H2U1 1-1008, looked up)
ATP-dependent DNA/RNA …: MSYDYHQNWGRDGGPRSSGGGYGGGPAGGHGGNRGSGGGGGGGGGGRGGRGRHPGHLKGREIGMWYAKKQGQKNKEAERQERAVVHMDERREEQIVQLLNSVQAKNDKESEAQISWFAPEDHGYGTEVSTKNTPCSENKLDIQEKKLINQEKKMFRIRNRSYIDRDSEYLLQENEPDGTLDQKLLEDLQKKKNDLRYIEMQHFREKLPSYGMQKELVNLIDNHQVTVISGETGCGKTTQVTQFILDNYIERGKGSACRIVCTQPRRISAISVAERVAAERAESCGSGNSTGYQIRLQSRLPRKQGSILYCTTGIILQWLQSDPYLSSVSHIVLDEIHERNLQSDVLMTVVKDLLNFRSDLKVILMSATLNAEKFSEYFGNCPMIHIPGFTFPVVEYLLEDVIEKIRYVPEQKEHRSQFKRGFMQGHVNRQEKEEKEAIYKERWPDYVRELRRRYSASTVDVIEMMEDDKVDLNLIVALIRYIVLEEEDGAILVFLPGWDNISTLHDLLMSQVMFKSDKFLIIPLHSLMPTVNQTQVFKRTPPGVRKIVIATNIAETSITIDDVVYVIDGGKIKETHFDTQNNISTMSAEWVSKANAKQRKGRAGRVQPGHCYHLYNGLRASLLDDYQLPEILRTPLEELCLQIKILRLGGIAYFLSRLMDPPSNEAVLLSIRHLMELNALDKQEELTPLGVHLARLPVEPHIGKMILFGALFCCLDPVLTIAASLSFKDPFVIPLGKEKIADARRKELAKDTRSDHLTVVNAFEGWEEARRRGFRYEKDYCWEYFLSSNTLQMLHNMKGQFAEHLLGAGFVSSRNPKDPESNINSDNEKIIKAVICAGLYPKVAKIRLNLGKKRKMVKVYTKTDGLVAVHPKSVNVEQTDFHYNWLIYHLKMRTSSIYLYDCTEVSPYCLLFFGGDISIQKDNDQETIAVDEWIVFQSPARIAHLVKELRKELDILLQEKIESPHPVDWNDTKSRDCAVLSAIIDLIKTQEKATPRNFPPRFQDGYYS

How the values were obtained:
[1] = test system: GFP-14-3-3β and its binding proteins; experiment: GFP-14-3-3β co-IP with LC-MS/MS label-free quantification, untreated versus PP1c-treated; design: species or system human; conditions: log2 difference; pairwise comparison PP1 vs untreated, label-free quantification, 3 replicates each
[2] = test system: GFP-14-3-3β; experiment: GFP-14-3-3β co-IP with LC-MS/MS, untreated GFP-14-3-3β versus GFP control (14-3-3 interactome); format: binding, human; conditions: log2 difference; pairwise comparison untreated vs GFP, label-free quantification, 3 replicates each

Molecule	Difference (log2), PP1 vs untreated [1]	Difference (log2), untreated vs GFP [2]
B1	1.412	0.4406
B2	1.402	0.7429
B3	1.432	-0.6332
B4	1.436	0.212
B5	1.455	-1.013
B6	1.381	-0.296
B7	1.434	0.06686
